# Earlier results as cited in doi:10.1101/429795.
# Molecular target: Cys164 (UniProt position 164, MYQQGCFAGGT)
# Test: chemical modification
substance,measurement,value
Chalcone synthase (MsCHS; CHS2) (Medicago sativa),pKa,5.5
